Data: PMC3219680 (2011)

T1: Mouse Cerberus 1 homologue (mCer1) recombinant protein (mouse, UniProt O55233 18-272)
T1 chain: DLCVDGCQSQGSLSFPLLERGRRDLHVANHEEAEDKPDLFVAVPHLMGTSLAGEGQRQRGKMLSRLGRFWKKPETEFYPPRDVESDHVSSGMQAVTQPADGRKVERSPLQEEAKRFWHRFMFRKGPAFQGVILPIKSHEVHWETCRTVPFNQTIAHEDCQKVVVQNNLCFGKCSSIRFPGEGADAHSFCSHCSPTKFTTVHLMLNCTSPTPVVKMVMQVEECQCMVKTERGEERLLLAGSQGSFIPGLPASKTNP

B1: hBMP4 (ligand)
chain: SPKHHSQRARKKNKNCRRHSLYVDFSDVGWNDWIVAPPGYQAFYCHGDCPFPLADHLNSTNHAIVQTLVNSVNSSIPKACCVPTELSAISMLYLDEYDKVVLKNYQEMVVEGCGCR
B2: hBMP2 (ligand)
chain: QAKHKQRKRLKSSCKRHPLYVDFSDVGWNDWIVAPPGYHAFYCHGECPFPLADHLNSTNHAIVQTLVNSVNSKIPKACCVPTELSAISMLYLDENEKVVLKNYQDMVVEGCGCR

Target: T1, Mouse Cerberus 1 homologue (mCer1) …
Experiment: SPR

Binder | Kd
B1 | 23.4 nM
B2 | 3.38 nM
